# Assay results taken from US7981691B2, “Two helix binders” (General Electric Company, priority 2006, dated 2011).
# Positions of bridges follow the written chain, without caps; N, C: chain ends. Non-standard residues stand in square brackets, D forms with d. No end group written: not given here. Aib = CC(C)(N)C(=O)O
# What was measured:
# [1] = target: T1, extracellular domain of the Her2/neu antigen (Fc-Her2) (Homo sapiens, UniProt P04626); assay: SPR (BIAcore) binding of two helix peptides to immobilized Fc-Her2; conditions: relative binding by SPR
# T1 construct: The extracellular domain of the Her2/neu antigen was obtained as a conjugate with the Fc region of human IgG; purchased R&D Systems
# Experimental: Binding interactions between the binder and the Her2/neu antigen was measured in vitro using surface plasmon resonance (SPR) detection on a BIAcore™ 3000 instrument (Piscataway, N.J.). The extracellular domain of the Her2/neu antigen was obtained as a conjugate with the Fc region of human IgG (Fc-Her2) from R&D Systems and covalently attached to a CM-5 dextran-functionalized sensor chip (BIAcore™) pre-equilibrated with HBS-EP buffer (0.00M HEPES pH 7.4, 0.15M NaCl, 3 mM EDTA, 0.005% v/v surfactant P20) at 10 μL/min and subsequently activated with 1-ethyl-3-[3-dimethylaminopropyl]carbodiimide hydrochloride (EDC) and N-hydroxysuccinimide (NHS). The Fc-Her2 (5 μg/ml) in 10 mM sodium acetate (pH 5.5) was injected onto the activated sensor chip until the desired immobilization level was achieved (2 min). Residual activated groups on the sensor chip were blocked by injection of ethanolamine (1 M, pH 8.5). Any non-covalently bound conjugate was removed by repeated (n=5) washing with 2.5 M NaCl2, 50 mM NaOH.
# A second flow cell on the same sensor chip was treated identically, except with no Fc-Her2 immobilization, to serve as a control surface for refractive index changes and non-specific binding interactions with the sensor chip. Prior to the kinetic study, binding of the target analyte was tested on both surfaces and a surface stability experiment was performed to ensure adequate removal of the bound analyte and regeneration of the sensor chip following treatment with 2.5 M NaCl, 50 mM NaOH. SPR sensorgrams were analyzed using the BiaEval (BIAcore) software.
# The binding interactions between the generated peptide and Fc-Her2 conjugate were measured using SPR (BIAcore). To minimize mass transport limitations, a surface density of ˜3000 Rus (Response Units) Fc-Her2 was used, resulting in a maximal binding response ˜100 RU with ˜100 nM of the synthesized peptide. SPR measurements were collected at eight analyte concentrations (0-100 nM peptide) and the resulting sensorgrams were fitted to a 1:1 Langmuir binding model.
# [2] = CD spectroscopy of 2-helix scaffolds (secondary structure, helicity); assay type: physicochemical; conditions: Circular Dichroism
# Experimental: Secondary structure of different 2-helix scaffold was determined by CD analysis. All CD spectra were obtained on an JASCO J-815 CD spectropolarimeter in the wavelength range of 250-185 nm using 1 nm bandwidth, 0.5 nm resolution, 4 seconds averaging time, 3 scan per sample, 0 second delay, and a path length of 1 mm. Spectra were recorded at 20° C., unless otherwise noted, in a thermostated circular cuvette, with peptide concentrations of 15 μM in 13 mM of K2HPO4 buffer at pH8. Results are reported as mean residue ellipticity (MRW).
Sequence,binding to target molecule Her2 (in words) [1],helicity / population of helix conformers (in words) [2]
VENKCNKXMRNXYWEXALLPNLNNQXKRAXIRSXYDDPC (VENKCNK[Aib]MRN[Aib]YWE[Aib]ALLPNLNNQ[Aib]KRA[Aib]IRS[Aib]YDDPC-NH2; disulfide 5-39 (inferred)) [SEQ. ID. NO. 26],unable to bind target molecule,helicity increases
VENKCNKEMRNAYWEIALLPNLNNQXKRAXIRSXYDDPC (VENKCNKEMRNAYWEIALLPNLNNQ[Aib]KRA[Aib]IRS[Aib]YDDPC-NH2; disulfide 5-39 (inferred)) [SEQ. ID. NO. 25],unable to bind target molecule,helicity increases
VENKCNKXMRNXYWEXALLPNLNNQQKRAFIRSLYDDPC (VENKCNK[Aib]MRN[Aib]YWE[Aib]ALLPNLNNQQKRAFIRSLYDDPC-NH2; disulfide 5-39 (inferred)) [SEQ. ID. NO. 24],unable to bind target molecule,helicity increases
